Target: photosystem II (PSII) complex of Porphyridium purpureum (P. purpureum (endogenous in P. purpureum cells))
Assay: cryo-EM structure; in situ, single cryo-EM images (no tilt series) of FIB-milled P. purpureum cellular lamellae; particles localized by GisSPA, then 3D classification and local refinement

stoichiometry N: 4
Substance: photosystem II (PSII) complex of Porphyridium purpureum
